Assay [1] addresses human CD2 (human) (UniProt P06729). The assay is described as follows: flow cytometry of primary human T cells at day 5; competition with the staining anti-CD2 clone RPA-2.10 [left panel]. (In general: A flow cytometer gives signals particle by particle.)
For assay [2] the target is unchanged. The assay is described as follows: cell-based or functional assay.

Sequence of UniProt P06729 (P06729 25-351 limits assumed): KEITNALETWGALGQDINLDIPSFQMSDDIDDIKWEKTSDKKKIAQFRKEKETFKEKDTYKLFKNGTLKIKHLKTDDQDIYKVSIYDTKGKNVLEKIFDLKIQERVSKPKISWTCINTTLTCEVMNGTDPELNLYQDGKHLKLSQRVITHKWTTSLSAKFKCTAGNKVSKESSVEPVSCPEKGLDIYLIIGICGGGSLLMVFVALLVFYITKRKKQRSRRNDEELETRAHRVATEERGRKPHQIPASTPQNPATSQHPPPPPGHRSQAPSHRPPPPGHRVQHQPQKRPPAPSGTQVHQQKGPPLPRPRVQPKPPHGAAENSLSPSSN

On to “CD2 RPA2.10 D265C/H435A ADC A (antibody)”, for which, in the assay with human CD2 (human) [1], the IC50 (read off the curve) was determined as 0.1 nM. In the assay with human CD2 (human) [2], this substance gave a % Efficacy, primary human T cell killing assay of 85.7% and an IC50 (pM), primary human T cell killing assay (5 days, flow cytometry) of 54 pM.
In the assay with human CD2 (human) [1], CD2 RPA naked (antibody) had an IC50 (read off the curve) of 0.08 nM.
